Legend:
[1] = target: L3 (DV1-GV8), soluble leucine zipper γδ TCR heterodimer of a delta variable 1 chain and a gamma variable 8 … (human); test: DELFIA ELISA, coated antigen;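 note: binding of antibody supernatants or protein-A purified antibodies to plate-coated antigen (3 µg/ml recombinant TCR or BSA), 1 h incubation at room temperature, DELFIA readout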
Procedure: (§1) A DELFIA ELISA binding method was also employed to assess binding of antibody supernatants or further protein-A purified antibody. In brief, MaxiSorp plates were coated with 3 μg/ml of antigen BSA or L1 (DV1-GV4), L2 (DV1-GV2), L3 (DV1-GV8), or L4 (DV2-GV4) recombinant TCR antigen. Plates were then washed with PBS, blocked with PBS/skimmed milk and then test article added and incubated for 1 hour at room temperature.

[2] = target: L2 (DV1-GV2), soluble leucine zipper γδ TCR heterodimer of a delta variable 1 chain and a gamma variable 2 … (human); test: DELFIA ELISA, coated antigen;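 note: binding of antibody supernatants or protein-A purified antibodies to plate-coated antigen (3 µg/ml recombinant TCR or BSA), 1 h incubation at room temperature, DELFIA readout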
Chain of L2 (DV1-GV2), soluble leucine zipper γδ TCR heterodimer of a delta variable 1 chain and a gamma variable 2 … (human) (chain, as listed by the source mutant, chain 1 of 2): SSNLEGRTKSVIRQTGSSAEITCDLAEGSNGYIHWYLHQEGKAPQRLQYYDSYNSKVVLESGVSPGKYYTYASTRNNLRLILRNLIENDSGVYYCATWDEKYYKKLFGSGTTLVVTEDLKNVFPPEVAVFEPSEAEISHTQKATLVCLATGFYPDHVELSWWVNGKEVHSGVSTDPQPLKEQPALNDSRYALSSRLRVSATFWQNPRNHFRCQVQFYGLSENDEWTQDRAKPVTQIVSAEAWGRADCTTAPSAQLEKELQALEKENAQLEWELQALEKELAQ
Chain of L2 (DV1-GV2), soluble leucine zipper γδ TCR heterodimer of a delta variable 1 chain and a gamma variable 2 … (human) (chain, as listed by the source mutant, chain 2 of 2): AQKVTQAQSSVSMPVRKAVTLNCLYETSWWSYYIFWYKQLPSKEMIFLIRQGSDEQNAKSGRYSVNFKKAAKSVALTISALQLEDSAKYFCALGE
Procedure: as §1

[3] = target: T1, BSA (bovine, UniProt P02769); test: DELFIA ELISA, coated antigen;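 note: binding of antibody supernatants or protein-A purified antibodies to plate-coated antigen (3 µg/ml recombinant TCR or BSA), 1 h incubation at room temperature, DELFIA readout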
T1 construct: coated at 3 µg/ml; also called bovine serum albumin, control antigen of the DELFIA ELISA
T1 sequence (P02769 25-607 limits assumed): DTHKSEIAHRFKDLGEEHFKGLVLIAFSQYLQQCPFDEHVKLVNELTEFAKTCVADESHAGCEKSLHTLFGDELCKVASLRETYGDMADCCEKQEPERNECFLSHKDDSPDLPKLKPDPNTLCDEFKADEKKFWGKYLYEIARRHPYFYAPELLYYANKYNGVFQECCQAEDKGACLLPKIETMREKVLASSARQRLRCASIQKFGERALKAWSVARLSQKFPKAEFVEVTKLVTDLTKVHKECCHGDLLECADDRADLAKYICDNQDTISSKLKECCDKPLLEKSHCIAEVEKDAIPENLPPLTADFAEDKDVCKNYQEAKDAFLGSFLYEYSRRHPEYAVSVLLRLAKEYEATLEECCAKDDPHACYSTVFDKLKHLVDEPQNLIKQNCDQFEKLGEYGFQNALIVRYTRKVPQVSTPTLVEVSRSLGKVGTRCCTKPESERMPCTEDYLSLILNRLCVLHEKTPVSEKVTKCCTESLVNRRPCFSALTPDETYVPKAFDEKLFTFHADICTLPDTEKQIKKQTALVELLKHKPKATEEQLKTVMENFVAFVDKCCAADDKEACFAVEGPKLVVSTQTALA
Procedure: as §1

[4] = target: T2, L1 (DV1-GV4), soluble leucine zipper γδ TCR heterodimer of a delta variable 1 chain and a gamma variable 4 … (human); test: DELFIA ELISA, coated antigen;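 note: binding of antibody supernatants or protein-A purified antibodies to plate-coated antigen (3 µg/ml recombinant TCR or BSA), 1 h incubation at room temperature, DELFIA readout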
T2 construct: also called bt-L1; not shown: histidine tag/linker said to follow the zipper
T2 sequence (main, as listed by the source, chain 1 of 2): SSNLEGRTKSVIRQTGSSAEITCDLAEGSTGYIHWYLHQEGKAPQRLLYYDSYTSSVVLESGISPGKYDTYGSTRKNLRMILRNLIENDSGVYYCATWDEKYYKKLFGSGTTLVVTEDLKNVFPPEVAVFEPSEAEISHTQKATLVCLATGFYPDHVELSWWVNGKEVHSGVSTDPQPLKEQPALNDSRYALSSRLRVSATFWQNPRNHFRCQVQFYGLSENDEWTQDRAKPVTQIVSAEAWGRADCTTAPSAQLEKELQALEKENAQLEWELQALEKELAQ
T2 sequence (main, as listed by the source, chain 2 of 2): as the sequence (chain, as listed by the source mutant, chain 2 of 2) above

[5] = target: T2, L1 (DV1-GV4), soluble leucine zipper γδ …; test: SPR (Reichert 4SPR), L1 coupled to chip, IgG1 flowed, steady state 1:1 fit; experiment 2
Procedure: (§2) In brief, the binding affinity of the antibodies to target (i.e. the human Vγ4 chain of a γδ TCR) was established by SPR analysis using a Reichert 4SPR instrument (Reichert Technologies). […] All experiments were performed at room temperature, with the samples kept at 4° C. before flowing over the chip. Steady state fitting was determined according to Langmuir 1:1 binding using software TraceDrawer (Reichert Technologies).

[6] = target: T2, L1 (DV1-GV4), soluble leucine zipper γδ …; test: SPR (Reichert 4SPR), L1 coupled to chip, IgG1 flowed, steady state 1:1 fit; average column (one experiment)
Procedure: as §2

[7] = target: T2, L1 (DV1-GV4), soluble leucine zipper γδ …; test: SPR (Reichert 4SPR), L1 coupled to chip, IgG1 flowed, steady state 1:1 fit; experiment 1
Procedure: as §2

[8] = target: T2, L1 (DV1-GV4), soluble leucine zipper γδ …; test: SPR (Reichert 4SPR), L1 coupled to chip, IgG1 flowed, steady state 1:1 fit; average
Procedure: as §2

[9] = target: T3, Vγ4 chain-bearing γδ TCR on primary human Vγ4+ T cells (skin, PBMC, gut) (human); test: flow cytometry titration on skin-derived Vγ4+ T cells, left plot, anti-human IgG1 secondary
T3 construct: Polyclonal natural receptors; only the germline Vγ4 region is common to them; also called primary Vγ4+ T cells; primary skin-derived Vγ4+ T cells
T3 sequence (main, as listed by the source): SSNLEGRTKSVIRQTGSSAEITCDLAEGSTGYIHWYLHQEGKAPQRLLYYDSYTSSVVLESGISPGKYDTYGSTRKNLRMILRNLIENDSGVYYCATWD
Procedure: Detection was performed by addition of a secondary, fluorescent dye-conjugated antibody against human IgG1 (IS11-12E4.23.20). Cells were then fixed and acquired on the MACSQuant16 flow cytometer. Cells were gated as single, live, IgG1 (Vγ4)⁺. Data shown are the median fluorescent intensity (MFI) of secondary detection antibody detected bound to Vγ4⁺ cells.

Chain of L3 (DV1-GV8), soluble leucine zipper γδ TCR heterodimer of a delta variable 1 chain and a gamma variable 8 … (human) (chain, as listed by the source mutant, chain 1 of 2): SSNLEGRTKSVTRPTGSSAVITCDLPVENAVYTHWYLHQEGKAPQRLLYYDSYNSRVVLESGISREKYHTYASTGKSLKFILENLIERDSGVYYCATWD
Chain of L3 (DV1-GV8), soluble leucine zipper γδ TCR heterodimer of a delta variable 1 chain and a gamma variable 8 … (human) (chain, as listed by the source mutant, chain 2 of 2): as the sequence (chain, as listed by the source mutant, chain 2 of 2) above

B1: G4_18 (antibody, human IgG1, V domains shown)
VH: EVQLVESGAEVKKPGASVKVSCKASGYTFTGYYMHWVRQAPGQGLEWMGRINPNSGGTNYAQKFQGRVTMTRDASISTAYMELSRLRSDDTAVYYCARDLDLSSLDYWGRGTLVTVSS
VL: SSYELTQPPSVTESPGQTARITCSGDALAKQYAYWYQQKPGQAPVLVIYRDSERPSEIPERFSGSSSGTTVTLTISGVQAEDEADYYCQSADSSGTYTVFGGGTKLTVLG
notes: also called 1254_P01_H04; clone G4_18
[1]
  DELFIA ELISA response (FU): 185 FU
[2]
  DELFIA ELISA response (FU): 66 FU
[3]
  DELFIA ELISA response (FU): 67 FU
  binding result: no binding
[4]
  DELFIA ELISA response (FU): 197000 FU
[5]
  Kd: 19.9 nM
[6]
  Kd: 19.9 nM

B2: G4_27 (antibody, human IgG1, V domains shown)
VH: QVQLVQSGAEVKKPGESLKISCKSSGYSFTSYWIGWVRQMPGKGLEWMGIIYPGDSDTRYSPSFQGQVTFSADESISTAYLQWSSLKASDTAMYYCARHGAYGDYPDTFDIWGQGTLVTVSS
VL: SSYELTQDPAVSVALGQTVSITCQGDSLRNFYANWYQQKPGQAPVLVIYGKNNRPSGIPDRFSGSSSGNTASLTITGAQAEDEADYYCNSRDSSGNHLVFGGGTQLTVLG
notes: also called 1248_P02_C10; clone G4_27
[1]
  DELFIA ELISA response (FU): 1690 FU
[2]
  DELFIA ELISA response (FU): 579 FU
[3]
  DELFIA ELISA response (FU): 40 FU
  binding result: no binding
[4]
  DELFIA ELISA response (FU): 138000 FU
[7]
  Kd: 261 nM
[6]
  Kd: 261 nM

B3: G4_3 (antibody, human IgG1, V domains shown)
VH: EVQLVESGGGLVQPGGSLRLSCAASGFTFSSYSMNWVRQAPGKGLEWVSSISSSSSYIYYADSVKGRFTISRDNSKNTLYLQMNSLRAEDTAVYYCARGGWLYDYWGQGTLVTVSS
VL: DIQMTQSPSSLSASVGDRVTITCQASQDISNYLNWYQQKPGKAPKLLIYDASNLETGVPSRFSGSGSGTDFTLTISSLQPEDFATYFCQQSYSTPQTFGQGTKVDIKR
notes: also called 1139_P01_A04; G4_03
[1]
  DELFIA ELISA response (FU): 239 FU
[2]
  DELFIA ELISA response (FU): 216 FU
[3]
  DELFIA ELISA response (FU): 88 FU
  binding result: no binding
[4]
  DELFIA ELISA response (FU): 213000 FU
[5]
  Kd: 2.03 nM
[7]
  Kd: 3.69 nM
[8]
  Kd: 2.86 nM

B4: G4_12 (antibody, human IgG1, V domains shown)
VH: EVQLLESGGGLVQPGGSLRLSCAASGFTVSSNYMSWVRQAPGKGLEWVSVIYSGGSTYYADSVKGRFTISRHNSKNTLYLQMNSLRAEDTAVYYCARVANGDFLDYWGRGTLVTVSS
VL: SQSVLTQPASVSGSPGQSITISCTGTSSDVGGYNFVSWYQQHPGKAPKLMIYEVTNRPSGVPDRFSGSKSGNTASLTISGLQAEDEADYYCSSHASPRVFGTGTKVTVLG
notes: also called 1140_P01_G08; clone G4_12
[9]
  EC50 (read off the curve): ~1 µg/mL
[1]
  DELFIA ELISA response (FU): 252 FU
[2]
  DELFIA ELISA response (FU): 229 FU
[3]
  DELFIA ELISA response (FU): 80 FU
  binding result: no binding
[4]
  DELFIA ELISA response (FU): 237000 FU
[5]
  Kd: 20.2 nM
[7]
  Kd: 17.8 nM
[8]
  Kd: 19 nM

B5: G4_20 (antibody, human IgG1, V domains shown)
VH: QVQLVESGAEVKKPGASVKVSCKASGGTFSSYAISWVRQAPGQGLEWMGGIIPIFGTANYAQKFQGRVTITVDKSTRTAYMELSSLRSKDTAVYYCARGNSRSDAFDIWGQGTMVTVSS
VL: SSYELTHPPSVSVSPGQTASITCSGDKLGDKFVSWYHQKPGQSPVLVIYQDSKRPSGIPERFSGSNSGNTATLTISGTRAMDEADYYCQAWDSSTVVFGGGTKLTVLG
notes: also called 1254_P02_G02; clone G4_20
[9]
  EC50 (read off the curve): ~2 µg/mL
[1]
  DELFIA ELISA response (FU): 239 FU
[2]
  DELFIA ELISA response (FU): 147 FU
[3]
  DELFIA ELISA response (FU): 132 FU
  binding result: no binding
[4]
  DELFIA ELISA response (FU): 184000 FU
[5]
  Kd: 62.1 nM
[7]
  Kd: 43 nM
[8]
  Kd: 52.5 nM

B6: G4_2 (antibody, human IgG1, V domains shown)
VH: QMQLVQSGAEVKKPGATVKISCKVSGYPFTDYYIHWVQQAPGKGLEWMGLVDPEDGQSRSAERFQGRVTITADTSTDTAYMELSSLRSEDTAVYYCATFPVAGFYGMDVWGQGTLVTVSS
VL: DIQMTQSPSSLSASVGDRVTITCQASQDISNYLNWYQQKPGKAPKLLIYAASSLQSGVPSRFSGSGSGTDFTLTISGLQPEDFATYYCLEDYNYLWTFGQGTKLEIKR
notes: also called clone G4_2
[1]
  DELFIA ELISA response (FU): 270 FU
[2]
  DELFIA ELISA response (FU): 86 FU
[3]
  DELFIA ELISA response (FU): 56 FU
  binding result: no binding
[4]
  DELFIA ELISA response (FU): 201000 FU

B7: G4_10 (antibody, human IgG1, V domains shown)
VH: QVQLVESGGGVVQPGRPLRLSCAASGFTFSSYAMHWVRQAPGKGLEWVSAISGSGGSTYYADSVKGRFTISRDNSKNTLYLQMNSLRAEDTAVYYCAKDGAVDFWRNGMDVWGRGTLVTVSS
VL: DIVMTQPPLSLPVTLGHPASISCKSSQSLEYSDGNTYLNWFQQRPGQSPRRLIYKVSNRDSGAPDRFSGSGSGTDFTLEISRVEAEDVGVYYCMQGTLWPPTFGQGTKVDIKR
notes: also called clone G4_10
[1]
  DELFIA ELISA response (FU): 187 FU
[2]
  DELFIA ELISA response (FU): 109 FU
[3]
  DELFIA ELISA response (FU): 57 FU
  binding result: no binding
[4]
  DELFIA ELISA response (FU): 145000 FU
